B1: MAdCAM antibody Clone ID 4 of Table 6 (scFv) (scFv)
scFv: QVQLVQSGAEVKKPGASVKVSCKASGGTFSSYAISWVRQAPGQGLEWMGSINPSGDTTSYAQKFQGRVTMTRDTSTSTVYMELSSLRSEDTAVYYCAKDKAQWLVGYFDYWGQGTLVTVSSGGGGSGGGGSGGGGSGGGGSDIQMTQSPSSLSASVGDRVTITCQASQDISNSLNWYQQKPGKAPKLLIYAASSLQSGVPSRFSGSGSGTDFTLTISSLQPEDFATYYCQQSYSSVITFGQGTKVEIK
B2: MAdCAM antibody Clone ID 59 of Table 6 (scFv) (scFv)
scFv: EVQLLESGGGLVQPGGSLRLSCAASGFTFSDFWMHWVRQAPGKGLEWISYISGDSGYTNYADSVKGRFTISRDNSKNTLYLQMNSLRAEDTAVYYCARDRPYYYYMDVWGKGTTVTVSSGGGGSGGGGSGGGGSGGGGSDIQMTQSPSSLSASVGDRVTITCRASQSVSRSLAWYQQKPGKAPKLLIYAASSLQSGVPSRFSGSGSGTDFTLTISSLQPEDFATYYCQQYKSYPVTFGQGTKVEIK
B3: MAdCAM antibody Clone ID 2 of Table 6 (scFv) (scFv)
scFv: QVQLVQSGAEVKKPGASVKVSCKASGYPFIGYYLHWVRQAPGQGLEWMGIINPSGGSTSYAQKFQGRVTMTRDTSTSTVYMELSSLRSEDTAVYYCAREGRLSYGMDAWGQGTLVTVSSGGGGSGGGGSGGGGSGGGGSDIQMTQSPSSLSASVGDRVTITCRASQSISSYLAWYQQKPGKAPKLLIYGASTLESGVPSRFSGSGSGTDFTLTISSLQPEDFATYYCQQTWGPPFTFGQGTKLEIK
B4: MAdCAM antibody Clone ID 22 of Table 7 (IgG) (antibody, V domains shown)
VH: EVQLLESGGGLVQPGGSLRLSCAASGFTFDDYAMHWVRQAPGKGLEWVSGISWNSGSIGYADSVKGRFTISRDNSKNTLYLQMNSLRAEDTAVYYCAKDIVAAGHYYYGMDVWGQGTTVTVSS
VL: DIQMTQSPSSLSASVGDRVTITCQASQDISNYLNWYQQKPGKAPKLLIYDASNLETGVPSRFSGSGSGTDFTLTISSLQPEDFATYYCQQSYSTPLTFGGGTKVEIK
notes: IgG format
B5: MAdCAM antibody Clone ID 23 of Table 7 (IgG) (antibody, V domains shown)
VH: EVQLLESGGGLVQPGGSLRLSCAASGFTFDDYAMHWVRQAPGKGLEWVSYIDTSSSHLYYADSVKGRFTISRDNSKNTLYLQMNSLRAEDTAVYYCARDEAAAGYYGMDVWGQGTTVTVSS
VL: B4 VL with S26G, S91T, L96I, G100Q, V104L
notes: IgG format
B6: MAdCAM antibody Clone ID 20 of Table 7 (IgG) (antibody, V domains shown)
VH: EVQLLESGGGLVQPGGSLRLSCAASGFTFSDSAMHWVRQAPGKGLEWVSAISGSGSTIYYADSVKGRFTISRDNSKNTLYLQMNSLRAEDTAVYYCVSDIAVAGHWYFDLWGRGTLVTVSS
VL: DIQMTQSPSSLSASVGDRVTITCRASQSISTFLNWYQQKPGKAPKLLIYAASRLEGGVPSRFSGSGSGTDFTLTISSLQPEDFATYYCQQANSFPLTFGPGTKVDIK
notes: IgG format
B7: MAdCAM antibody Clone ID 6 of Table 7 (IgG) (antibody, V domains shown)
VH: EVQLLESGGGLVQPGGSLRLSCAASGFTFNNYAFHWVRQAPGKGLEWVSRINSYGTSTTYADSVKGRFTISRDNSKNTLYLQMNSLRAEDTAVYYCAREGPVAGYWYFDLWGQGTLVTVSS
VL: DIQMTQSPSSLSASVGDRVTITCRASQIIGTNLAWYQQKPGKAPKLLIYGASSLQSGVPSRFSGSGSGTDFTLTISSLQPEDFATYYCQQSYRLPFTFGQGTKVEIK
notes: IgG format
B8: MAdCAM antibody Clone ID 79 of Table 7 (IgG) (antibody, V domains shown)
VH: EVQLLESGGGLVKPGGSLRLSCAASGFTFDDYAMHWVRQAPGKGLEWVASITSSSAFIDYAASVKGRFTISRDDSKNTLYLQMNSLKTEDTAVYYCARERVDWNSYFDLWGRGTLVTVSS
VL: EIVMTQSPATLSVSPGERATLSCRASQGISNSYLAWYQQKPGQAPRLLIYGASTRATGIPARFSGSGSGTEFTLTISSLQSEDFAVYYCQQYYTYPPTFGPGTKVDIK
notes: IgG format
B9: MAdCAM antibody Clone ID 17 of Table 7 (IgG) (antibody, V domains shown)
VH: QVQLVQSGAEVKKPGSSVKVSCKASGYTFTDYHIHWVRQAPGQGLEWMGGIVPRSGSTTYAQKFQGRVTITADESTSTAYMELSSLRSEDTAVYYCAKDESSGWYYFDYWGQGTLVTVSS
VL: DIVMTQSPLSLPVTPGEPASISCRSSQSLLHSNGYNYLDWYLQKPGQSPQLLIYSAYNRASGVPDRFSGSGSGTDFTLKISRVEAEDVGVYYCMQALQTPLTFGQGTKVEIK
notes: IgG format
B10: MAdCAM antibody Clone ID 46 of Table 7 (IgG) (antibody, V domains shown)
VH: EVQLLESGGGLVQPGGSLRLSCAASGFSFSSYTMNWVRQAPGKGLEWVSFITSSSRTIYYADSVKGRFTISRDNSKNTLYLQMNSLRAEDTAVYYCARDRRGDYGDSWYFDLWGRGTLVTVSS
VL: EIVMTQSPATLSVSPGERATLSCRASQSVRNYLAWYQQKPGQAPRLLIYGASTRATGIPARFSGSGSGTEFTLTISSLQSEDFAVYYCQQYGSSPLTFGGGTKVEIK
notes: IgG format
B11: MAdCAM antibody Clone ID 75 of Table 7 (IgG) (antibody, V domains shown)
VH: EVQLLESGGGLVQPGGSLRLSCAASGFTFSDFWMHWVRQAPGKGLEWISYISGDSGYTNYADSVKGRFTISRDNSKNTLYLQMNSLRAEDTAVYYCARDRPYYYYMDVWGKGTTVTVSS
VL: DIQMTQSPSSLSASVGDRVTITCRASQSVSRSLAWYQQKPGKAPKLLIYAASSLQSGVPSRFSGSGSGTDFTLTISSLQPEDFATYYCQQYKSYPVTFGQGTKVEIK
notes: IgG format

The text below walks through data of patent publication US20200392228A1 (PANDION OPERATIONS, published 2020).

Residue numbers refer to the chain shown, from its start.

The first test has as its target T1, human MAdCAM protein (human, UniProt Q13477 19-317).
T1 construct: used for Octet, SPR, ELISA and plate capture; construct not described; also called recombinant human MAdCAM; soluble monomeric human MAdCAM
T1 sequence (looked up): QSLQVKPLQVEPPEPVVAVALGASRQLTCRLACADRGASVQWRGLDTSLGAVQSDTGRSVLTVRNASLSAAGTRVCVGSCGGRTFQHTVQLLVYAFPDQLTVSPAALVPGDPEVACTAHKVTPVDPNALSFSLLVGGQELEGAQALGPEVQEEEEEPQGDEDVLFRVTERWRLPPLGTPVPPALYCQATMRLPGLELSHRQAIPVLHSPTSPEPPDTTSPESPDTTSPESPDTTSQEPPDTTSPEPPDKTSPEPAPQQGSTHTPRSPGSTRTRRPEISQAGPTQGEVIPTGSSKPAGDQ
As to the kind of experiment: Octet.
For the molecule B1, the binding result is “binds”.
On the same count and under the same terms, the same measure for B2: “binds”.
Same read-out and setting: for B3 the value was “binds”.

In the next test the target is T2, mouse MAdCAM protein (mouse, UniProt Q61826 22-365, limits assumed).
T2 construct: also called recombinant mouse MAdCAM-1; mMAdCAM-1
T2 sequence (looked up): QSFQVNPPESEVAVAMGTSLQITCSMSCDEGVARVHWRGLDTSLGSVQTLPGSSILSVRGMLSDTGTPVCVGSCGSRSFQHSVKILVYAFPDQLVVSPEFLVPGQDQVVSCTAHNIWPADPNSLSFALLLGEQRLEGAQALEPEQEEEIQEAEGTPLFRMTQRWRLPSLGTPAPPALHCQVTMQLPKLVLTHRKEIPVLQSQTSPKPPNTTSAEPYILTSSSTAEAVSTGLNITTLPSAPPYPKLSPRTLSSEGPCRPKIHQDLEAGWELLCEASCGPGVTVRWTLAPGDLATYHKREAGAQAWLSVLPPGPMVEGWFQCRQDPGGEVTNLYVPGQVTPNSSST
As to the kind of experiment: Octet.
With B1, the binding result is reported as “binds”.
The same measure, in the same setting: the same measure for B2: “binds”; for B3: “binds”.

The next test concerns the target T1, human MAdCAM protein. As to the kind of experiment: Octet. The source holds these as a separate data set.
In the case of B4, the binding result was “binds”.
On the same count and under the same terms, for B5 the value was “binds”; for B6, “binds”.
Take B7: the binding result is “binds”.
As for B8, the binding result was “binds”.
The same measure, in the same setting: the same measure for B9: “binds”.
Take B10: the binding result was “binds”.
Still for that read-out and setting: the same measure for B11: “binds”.

A further test has as its target T2, mouse MAdCAM protein. The test can be described thus: Octet. The source holds these as a separate data set.
B4: the binding result is “no binding”.
The same measure, in the same setting: the same measure for B5: “no binding”; for B6: “no binding”; for B7: “no binding”.
On the same count and under the same terms, for B8 the value was “binds”; for B9, “no binding”; for B10, “no binding”.
With B11, the binding result is recorded as “binds”.

Another test addresses T3, human MAdCAM expressed on cells (human, UniProt Q13477 19-382).
T3 construct: whole, on cells; also called MADCAM1
T3 sequence (looked up): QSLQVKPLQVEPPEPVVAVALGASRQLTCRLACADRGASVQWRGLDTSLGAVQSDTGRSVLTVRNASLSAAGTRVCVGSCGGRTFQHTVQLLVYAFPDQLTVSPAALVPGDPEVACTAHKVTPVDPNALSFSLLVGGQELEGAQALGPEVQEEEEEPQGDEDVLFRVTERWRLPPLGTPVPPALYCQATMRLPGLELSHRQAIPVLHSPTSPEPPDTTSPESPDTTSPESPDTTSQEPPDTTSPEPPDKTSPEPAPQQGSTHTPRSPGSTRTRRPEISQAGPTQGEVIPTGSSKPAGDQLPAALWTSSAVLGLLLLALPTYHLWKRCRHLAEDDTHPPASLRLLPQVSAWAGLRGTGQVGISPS
The test can be described thus: cell binding.
For B1, the binding result was “binds”.
Still for that read-out and setting: for B2 the value was “binds”; for B3, “binds”.

The target of the next test is T4, mouse MAdCAM expressed on cells (mouse, UniProt Q61826 22-405).
T4 construct: whole, on cells
T4 sequence (looked up): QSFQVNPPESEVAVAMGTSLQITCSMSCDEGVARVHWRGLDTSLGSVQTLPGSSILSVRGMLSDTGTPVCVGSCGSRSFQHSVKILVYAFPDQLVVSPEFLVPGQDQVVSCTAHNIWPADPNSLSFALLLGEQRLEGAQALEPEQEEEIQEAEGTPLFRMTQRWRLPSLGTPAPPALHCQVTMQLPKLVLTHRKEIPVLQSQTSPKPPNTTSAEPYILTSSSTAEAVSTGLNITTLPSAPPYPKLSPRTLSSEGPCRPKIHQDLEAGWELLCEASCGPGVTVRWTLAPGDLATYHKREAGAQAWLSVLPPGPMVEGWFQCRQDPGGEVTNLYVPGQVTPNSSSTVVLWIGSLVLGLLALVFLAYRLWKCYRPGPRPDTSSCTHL
As to the kind of experiment: cell binding.
On to B1, for which the binding result is “binds”.
Still for that read-out and setting: for B2 the value was “binds”; for B3, “binds”.

For a further test, the target named is T3, human MAdCAM expressed on cells. The test can be described thus: cell binding. The source holds these as a separate data set.
B4: the binding result is reported as “binds”.
Still for that read-out and setting: for B5 the value was “binds”.
Still for that read-out and setting: for B6 the value was “binds”; for B7, “binds”; for B8, “binds”.
On the same count and under the same terms, for B9 the value was “binds”; for B10, “binds”.
On to B11, for which the binding result is “binds”.

For a further test, the target named is T4, mouse MAdCAM expressed on cells. As to the kind of experiment: cell binding. This is another data set of the same source.
B4: the binding result is “no binding”.
Same read-out and setting: for B5 the value was “no binding”; for B6, “no binding”; for B7, “no binding”.
On the same count and under the same terms, for B8 the value was “binds”; for B9, “no binding”; for B10, “no binding”.
Same read-out and setting: for B11 the value was “binds”.
